According to paper PMC8125067:

Target: T1, endogenous IRF3 of HEK293T cells (human (endogenous in HEK293T)), Q14653
T1 chain: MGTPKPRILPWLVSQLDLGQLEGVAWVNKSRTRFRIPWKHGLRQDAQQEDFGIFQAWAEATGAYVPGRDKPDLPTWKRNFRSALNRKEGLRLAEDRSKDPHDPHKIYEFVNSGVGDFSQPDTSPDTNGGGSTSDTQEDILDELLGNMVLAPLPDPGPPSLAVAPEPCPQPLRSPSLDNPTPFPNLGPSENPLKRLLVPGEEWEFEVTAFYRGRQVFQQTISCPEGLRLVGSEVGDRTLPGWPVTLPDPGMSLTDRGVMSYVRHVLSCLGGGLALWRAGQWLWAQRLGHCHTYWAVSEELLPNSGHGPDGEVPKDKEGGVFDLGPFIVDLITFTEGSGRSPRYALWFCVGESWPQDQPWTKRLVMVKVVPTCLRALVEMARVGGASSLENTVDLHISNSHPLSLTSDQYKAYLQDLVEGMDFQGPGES
Test: native gel or EMSA; IRF3 dimer gel: lysate of HEK293T transfected 36 h with or without MDA5 and VP3; native PAGE, 25 mM Tris-HCl, 192 mM glycine, pH 8.4, 1% deoxycholate in the cathode chamber; blot with anti-IRF3
Settings: remark: other sources report otherwise

B1: endogenous IRF3 of HEK293T cells, Q14653 1-427 (natural protein)
chain: T1 chain
- stoichiometry N: 2
